Experimental findings from PMC2141769 are described below.

The target of experiment [1] is EC0, mutant E-cadherin protein that completely lacks the cytoplasmic domain. In words: cross-linking.
The target of experiment [2] is EΔC71, mutant E-cadherin polypeptide with COOH-terminal deletion of 71 amino acid residues. In words: co-IP.
Experiment [3] has as its target EΔC37, mutant E-cadherin polypeptide with COOH-terminal deletion of 37 amino acid residues. In words: co-IP.

Take “EC0, mutant E-cadherin protein that completely lacks the cytoplasmic domain (domain or fragment)”: the stoichiometry N in experiment [1] was determined as 2.

B1: p120 (natural protein)
chain: MDDSEVESTASILASVKEQEAQFEKLTRALEEERRHVSAQLERVRVSPQDANPLMANGTLTRRHQNGRFVGDADLERQKFSDLKLNGPQDHSHLLYSTIPRMQEPGQIVETYTEEDPEGAMSVVSVETSDDGTTRRTETTVKKVVKTVTTRTVQPVAMGPDGLPVDASSVSNNYIQTLGRDFRKNGNGGPGPYVGQAGTATLPRNFHYPPDGYSRHYEDGYPGGSDNYGSLSRVTRIEERYRPSMEGYRAPSRQDVYGPQPQVRVGGSSVDLHRFHPEPYGLEDDQRSMGYDDLDYGMMSDYGTARRTGTPSDPRRRLRSYEDMIGEEVPSDQYYWAPLAQHERGSLASLDSLRKGGPPPPNWRQPELPEVIAMLGFRLDAVKSNAAAYLQHLCYRNDKVKTDVRKLKGIPVLVGLLDHPKKEVHLGACGALKNISFGRDQDNKIAIKNCDGVPALVRLLRKARDMDLTEVITGTLWNLSSHDSIKMEIVDHALHALTDEVIIPHSGWEREPNEDCKPRHIEWESVLTNTAGCLRNVSSERSEARRKLRECDGLVDALIFIVQAEIGQKDSDSKLVENCVCLLRNLSYQVHREIPQAERYQEAAPNVANNTGPHAASCFGAKKGKDEWFSRGKKPIEDPANDTVDFPKRTSPARGYELLFQPEVVRIYISLLKESKTPAILEASAGAIQNLCAGRWTYGRYIRSALRQEKALSAIADLLTNEHERVVKAASGALRNLAVDARNKELIGKHAIPNLVKNLPGGQQNSSWNFSEDTVISILNTINEVIAENLEAAKKLRETQGIEKLVLINKSGNRSEKEVRAAALVLQTIWGYKELRKPLEKEGWKKSDFQVNLNNASRSQSSHSYDDSTLPLIDRNQKSDKKPDREEIQMSNMGSNTKSLDNNYSTPNERGDHNRTLDRSGDLGDMEPLKGTTPLMQDEGQESLEEELDVLVLDDEGGQVSYPSMQKI
Take B1: the amount of p120 coprecipitated, percent of EK cells in experiment [2] and in experiment [3] was 10% throughout.
